{"source": "patent US10294487B2", "about": "“Methods and compositions involving ALS variants with native substrate preference” (E I DU PONT DE NEMOURS AND COMPANY, priority 2012, dated 2019)", "molecules": {"B1": {"name": "A122V: Site-directed mutation in A. thaliana ALS; position A122, 103 (protein, UniProt P17597 56-670, looked up, variant A122V)", "Acetolactate synthase, …": "SSSPSSISAVLNTTTNVTTTPSPTKPTKPETFISRFAPDQPRKGADILVEALERQGVETVFAYPGGVSMEIHQALTRSSSIRNVLPRHEQGGVFAAEGYARSSGKPGICIATSGPGATNLVSGLADALLDSVPLVAITGQVPRRMIGTDAFQETPIVEVTRSITKHNYLVMDVEDIPRIIEEAFFLATSGRPGPVLVDVPKDIQQQLAIPNWEQAMRLPGYMSRMPKPPEDSHLEQIVRLISESKKPVLYVGGGCLNSSDELGRFVELTGIPVASTLMGLGSYPCDDELSLHMLGMHGTVYANYAVEHSDLLLAFGVRFDDRVTGKLEAFASRAKIVHIDIDSAEIGKNKTPHVSVCGDVKLALQGMNKVLENRAEELKLDFGVWRNELNVQKQKFPLSFKTFGEAIPPQYAIKVLDELTDGKAIISTGVGQHQMWAAQFYNYKKPRQWLSSGGLGAMGFGLPAAIGASVANPDAIVVDIDGDGSFIMNVQELATIRVENLPVKVLLLNNQHLGMVMQWEDRFYKANRAHTFLGDPAQEDEIFPNMLLFAAACGIPAARVTKKADLREAIQTMLDTPGPYLLDVICPHQEHVLPMIPSGGTFNDVITEGDGRIKY"}, "B2": {"name": "P197S: Chemical mutagenesis of A. thaliana plants; position P197, 178 (protein, UniProt P17597 56-670, looked up, variant P197S)", "Acetolactate synthase, …": "B1 Acetolactate synthase, … with V67A, P142S"}, "B3": {"name": "R199E: Site-directed mutation in A. thaliana ALS; position R199, 180 (protein, UniProt P17597 56-670, looked up, variant R199E)", "Acetolactate synthase, …": "B1 Acetolactate synthase, … with V67A, R144E"}, "B4": {"name": "F590L: Site-directed mutation in S. cerevisiae ALS; position F578, 559 (protein, UniProt P07342 91-687, looked up, variant F590L)", "Acetolactate synthase …": "GLTGGQIFNEMMSRQNVDTVFGYPGGAILPVYDAIHNSDKFNFVLPKHEQGAGHMAEGYARASGKPGVVLVTSGPGATNVVTPMADAFADGIPMVVFTGQVPTSAIGTDAFQEADVVGISRSCTKWNVMVKSVEELPLRINEAFEIATSGRPGPVLVDLPKDVTAAILRNPIPTKTTLPSNALNQLTSRAQDEFVMQSINKAADLINLAKKPVLYVGAGILNHADGPRLLKELSDRAQIPVTTTLQGLGSFDQEDPKSLDMLGMHGCATANLAVQNADLIIAVGARFDDRVTGNISKFAPEARRAAAEGRGGIIHFEVSPKNINKVVQTQIAVEGDATTNLGKMMSKIFPVKERSEWFAQINKWKKEYPYAYMEETPGSKIKPQTVIKKLSKVANDTGRHVIVTTGVGQHQMWAAQHWTWRNPHTFITSGGLGTMGYGLPAAIGAQVAKPESLVIDIDGDASFNMTLTELSSAVQAGTPVKILILNNEEQGMVTQWQSLLYEHRYSHTHQLNPDFIKLAEAMGLKGLRVKKQEELDAKLKEFVSTKGPVLLEVEVDKKVPVLPMVAGGSGLDEFINFDPEVERQQTELRHKRTGGKH"}, "B5": {"name": "P192S: Site-directed mutation in S. cerevisiae ALS; position P197, 178 (protein, UniProt P07342 91-687, looked up, variant P192S)", "Acetolactate synthase …": "B4 Acetolactate synthase … with P102S, L500F"}, "B6": {"name": "GM-ALS_F559D: Glycine Max ALS1 variant with a F→D mutation at position 559 (protein)", "chain": "MAATASRTTRFSSSSSHPTFPKRITRSTLPLSHQTLTKPNHALKIKCSISKPPTAAPFTKEAPTTEPFVSRFASGEPRKGADILVEALERQGVTTVFAYPGGASMEIHQALTRSAAIRNVLPRHEQGGVFAAEGYARSSGLPGVCIATSGPGATNLVSGLADALMDSVPVVAITGQVPRRMIGTDAFQETPIVEVSRSITKHNYLILDVDDIPRVVAEAFFVATSGRPGPVLIDIPKDVQQQLAVPNWDEPVNLPGYLARLPRPPAEAQLEHIVRLIMEAQKPVLYVGGGSLNSSAELRRFVELTGIPVASTLMGLGTFPIGDEYSLQMLGMHGTVYANYAVDNSDLLLAFGVRFDDRVTGKLEAFASRAKIVHIDIDSAEIGKNKQAHVSVCADLKLALKGINMILEEKGVEGKFDLGGWREEINVQKHKFPLGYKTFQDAISPQHAIEVLDELTNGDAIVSTGVGQHQMWAAQFYKYKRPRQWLTSGGLGAMGFGLPAAIGAAVANPGAVVVDIDGDGSFIMNVQELATIRVENLPVKILLLNNQHLGMVVQWEDRDYKSNRAHTYLGDPSSESEIFPNMLKFADACGIPAARVTKKEELRAAIQRMLDTPGPYLLDVIVPHQEHVLPMIPSNGSFKDVITEGDGRTRY", "modifications": "ALS1 variant F559D"}, "B7": {"name": "GM-ALS_F559L: Glycine Max ALS1 variant with a F→L mutation at position 559 (protein)", "chain": "B6 chain with D559L", "modifications": "F559L"}}, "key": {"[1]": {"system": "ALS", "settings": "cited from earlier work; for Resistance pattern, I50 fold increase: IM: imidazolinone(s); for Resistance pattern, I50 fold increase: SU: sulfonylurea(s); for Resistance pattern, I50 fold increase: IEt: imazethapyr"}, "[2]": {"system": "ALS", "settings": "cited from earlier work; for Kinetic parameters: Km / Kinetic parameters: kcat: pyruvate reaction"}, "[3]": {"system": "G. max ALS1 protein", "experiment": "Colorimetric ALS kinetic assay (Km, kcat) with pyruvate as substrate", "format": "biochemical, Glycine max", "method": "A survey of known ALS (AcetoLactate Synthase) gene variants (Table 2) was performed, and a number of ALS variants were selected for kinetic evaluation based on breadth and strength of insensitivity to ALS-inhibitor herbicides as well as kinetic activity parameters including the ratio of substrate preferences. The selected ALS gene variants (Table 3) were generated by PCR mediated site-directed mutagenesis. Finnzymes PHUSION® DNA polymerase (Cat. No. F-530S) was used for the PCR reactions, following the instructions for recommended temperatures and cycles in the PHUSION® protocol. Some mutagenesis reactions were assisted by the use of IN-FUSION® enzyme (Clontech Cat. No. 639620) to circularize a linear plasmid with the mutation located within the 15 nucleotide overlapping ends, via recombination following the manufacturer's protocol for primer design and reaction conditions. The ALS genes, beginning with encoded amino acids SISK, (S48 to K51 in the G. max ALS1 protein (SEQ ID NO:1) corresponding to the mature protein N-terminus of the chloroplast localized enzyme), were cloned into the PMAL® E. coli expression vector (New England Biolabs) to express ALS as a fusion protein with a Maltose-Binding Protein (MBP) at the N-terminus with a thrombin site for cleavage and a His-6 tag for affinity purification. All in vitro protein characterization described in the examples was carried out with the isolated proteins after cleavage from the His-MBP fusion partner.\nKm and Kcat determinations for recombinant ALS variants (with respect to pyruvate as the substrate) were performed using a colorimetric assay. ALS assays were carried out in 96-well microplates with 150 ul reaction containing 25 mM potassium phosphate, 0.2 mg/ml BSA, 15 mM MgCl2, 0.7 mM TPP, 28 uM FAD and 0-100 mM sodium pyruvate. Reactions were initiated by the addition of ALS enzyme to a final amount of 0.8 ug/well. Parameters for Km and Vmax were determined by fitting the velocity versus substrate concentration data to a rectangular hyperbola using GraphPad Prism software. Kcat values were determined from Vmax based on protein concentration in the reactions."}, "[4]": {"system": "G. max ALS1 protein", "experiment": "Substrate specificity ratio (Rf), pyruvate versus 2-ketobutyrate, LC-MS of reduced products", "format": "biochemical, Glycine max", "settings": "ratio of [pyruvate] to [2-ketobutyrate] giving equal rates of acetolactate and acetohydroxybutyrate formation; 25 mM pyruvate", "from_the_text": "The “substrate specificity ratio”, or “Rf”, characterizes the specificity of the ALS enzyme for AHB formation relative to AL formation (Gollop et al. (1989) Biochemistry 28:6310-6317). Rf is the ratio of [pyruvate] to [2-ketobutyrate] that results in equal rates of formation of acetolactate and acetohydroxybutyrate. Rf is a constant at all substrate concentrations. The substrate specificity ratio is ˜114 for the wild type Glycine max ALS1 enzyme (SEQ ID NO:1) compared to ˜3 for the highly resistant allele (HRA) double mutant variant (SEQ ID NO: 10) of the Glycine max ALS1. The soybean HRA sequence is disclosed, for example, in WO2007/024782, herein incorporated by reference.\nSubstrate preference was determined using the assay described in Example 3; however, the assay was conducted using a constant concentration of pyruvate (25 mM) and varying concentrations of the second substrate, 2-ketobutyrate. Each reaction involving a specific ratio of pyruvate to 2-ketobutyrate, after a set period of time, was quenched by addition of sodium borohydride (7-fold excess) to form the reduced adducts of the products of the two substrates namely; reduced acetolactate for the reaction with pyruvate and reduced aceto hydroxybutyrate for the 2-ketobutyrate reaction. The relative amounts of the two reduced products was determined by first, chromatographic separation using a 4.6×250 mm dC18 column (Atlantis) equilibrated with a 0.1% formic acid solution and subsequent elution using a methanol gradient at 0.7 ml/min, followed by detection using a Thermo FINNIGAN® LTQ® Mass Spectrometer (MS). The products of the two reactions were quantified by integration of the MS signals. The % of the amount of each of the reduced products was then plotted versus the concentration of 2-ketobutyrate. As the 2-ketobutyrate amount increased there was a consequent increase in reduced acetohydroxybutyrate (AHB) and decrease in reduced acetolactate (AL). […] The substrate specificity ratio was ˜114 for the wild type enzyme compared to 3 for the highly resistant allele (HRA) double mutant ALS variant (SEQ ID NO: 10)."}}, "note": "Substitutions are numbered along the chain they refer to. Numbers in names are those of the source."}
{"molecule": "B1", "values": [{"measurement": "Resistance pattern, I50 fold increase: IM", "setting": "[1]", "value": "IMs, 1000-2000 fold"}, {"measurement": "Resistance pattern, I50 fold increase: SU", "setting": "[1]", "value": "SUs, 4 fold"}, {"measurement": "Kinetic parameters: Kc for FAD", "setting": "[2]; cofactor activation constant, flavin adenine dinucleotide", "value": "Kc for FAD, 400 % wt"}, {"measurement": "Kinetic parameters: Kc for TPP", "setting": "[2]; cofactor activation constant, thiamin pyrophosphate", "value": "Kc for TPP, 2000 % wt"}, {"measurement": "Kinetic parameters: Km", "setting": "[2]", "value": "Km, 160 % wt"}, {"measurement": "Kinetic parameters: kcat", "setting": "[2]", "value": "kcat, 25 % wt"}]}
{"molecule": "B2", "values": [{"measurement": "Resistance pattern, I50 fold increase: IP", "setting": "[1]; IP (abbreviation not defined)", "value": "IP, 2 fold"}, {"measurement": "Resistance pattern, I50 fold increase: CS", "setting": "[1]; chlorsulfuron", "value": "CS, 1000 fold"}]}
{"molecule": "B3", "values": [{"measurement": "Resistance pattern, I50 fold increase: IEt", "setting": "[1]", "value": "IEt, 50 fold"}, {"measurement": "Resistance pattern, I50 fold increase: SM", "setting": "[1]; sulfometuron methyl", "value": "SM, 2 fold"}]}
{"molecule": "B4", "values": [{"measurement": "Resistance pattern, I50 fold increase: IM", "setting": "[1]", "value": "IM, 60 fold"}, {"measurement": "Resistance pattern, I50 fold increase: SU", "setting": "[1]", "value": "SUs, 30-300 fold"}, {"measurement": "Kinetic parameters: Km", "setting": "[2]", "value": "Km, 30 % wt"}, {"measurement": "Kinetic parameters: kcat", "setting": "[2]", "value": "kcat, 200 % wt"}]}
{"molecule": "B5", "values": [{"measurement": "Resistance pattern, I50 fold increase: IEt", "setting": "[1]", "value": "IEt, 10 fold"}, {"measurement": "Resistance pattern, I50 fold increase: SU", "setting": "[1]", "value": "SUs, 400-2000 fold"}, {"measurement": "Kinetic parameters: Km", "setting": "[2]", "value": "Km, 75 % wt"}, {"measurement": "Kinetic parameters: kcat", "setting": "[2]", "value": "kcat, 25 % wt"}]}
{"molecule": "B6", "values": [{"measurement": "Km", "setting": "[3]", "value": 20, "unit": "mM"}, {"measurement": "kcat", "setting": "[3]", "value": 0.417, "unit": "s⁻¹"}, {"measurement": "Substrate specificity ratio (Rf)", "setting": "[4]", "value": 96.0}]}
{"molecule": "B7", "values": [{"measurement": "Km", "setting": "[3]", "value": 6, "unit": "mM"}, {"measurement": "kcat", "setting": "[3]", "value": 1.78, "unit": "s⁻¹"}, {"measurement": "Substrate specificity ratio (Rf)", "setting": "[4]", "value": 62.5}]}
